# Measurements from US10800847.
# Experiments:
# HLA-B*0702 (B7) (human) = test: iBead MFI against regular-bead MFI, IVIg diluted 1:4
# HLA-B*1301 (B13) (human) = test: as above
# HLA-B*1302 (B13) (human) = test: as above
# HLA-B*1401 (B64) (human) = test: as above
# HLA-B*1402 (B65) (human) = test: as above
# HLA-B*1503 (B72) (human) = test: as above
# HLA-B*1510 (B71) (human) = test: as above
# HLA-B*1512 (B76) (human) = test: as above
# [1] = target: Albumin on negative control beads (serum albumin, HSA/BSA) (human or bovine); test: Luminex, iBead MFI against regular bead MFI, 1:8
# [2] = target: HLA-A*0301 (A3) on single antigen beads (human) (UniProt P04439); test: Luminex, iBead MFI against regular bead MFI, 1:8
Substance,Difference % (iBead vs regular bead) (HLA-B*0702 (B7) (human)) [%],Difference % (iBead vs regular bead) (HLA-B*1301 (B13) (human)) [%],Difference % (iBead vs regular bead) (HLA-B*1302 (B13) (human)) [%],Difference % (iBead vs regular bead) (HLA-B*1401 (B64) (human)) [%],Difference % (iBead vs regular bead) (HLA-B*1402 (B65) (human)) [%],Difference % (iBead vs regular bead) (HLA-B*1503 (B72) (human)) [%],Difference % (iBead vs regular bead) (HLA-B*1510 (B71) (human)) [%],Difference % (iBead vs regular bead) (HLA-B*1512 (B76) (human)) [%],Difference % (iBead against regular bead) [1] [%],Difference % (iBead against regular bead) [2] [%]
"IVIg Sandoglobulin (Novartis, Basel, Switzerland) (antibody)",41,-4,5,-67,-36,0,13,199,,
"Octagam (IVIg, Octapharma, Lachen, Switzerland) (antibody)",,,,,,,,,-29,-100
